Measured values: the nanobody polyreactivity screen of Harvey et al. (2022)

Assay: yeast display, Sf9 membrane polyspecificity reagent, FACS + sequencing; frameworks hold sequencing errors
Procedure, shortened: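 Using colony PCR, genes from sorted yeast display clones were amplified, then sequenced on MiSeq at 2 × 250 and filtered by CDR length. The clones had been stained with 10% biotinylated, detergent-solubilized Sf9 membrane reagent for 1 hour at 4 °C and sorted by FACS into low and high (top ~1%) gates on anti-HA and streptavidin fluorescence. Polyreactivity labels come from the gate of origin.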

Sequence | polyreactivity (PSR sort gate)
QVQLVESGGGLVQAGGSLRLSCAASGFIFPYYAMGWYRQAPGKERELVAAISSSGGRTYYADSVKGRFTISRDNAKNTVYLQMNSLKPEDTAVYYCNARPNPYLGYGYWGQGTQVTVSS | high polyreactivity
QVQHVESGGGLVQAGGSLRLSCASSGFIFYKYVMGWYRQAPGKERELVAAINWSGGSTYYADSVKGRFTISRDNAKNTVYLQMNSLKPDVTAVYYCAALSQYRYDYWGQGTQVTVSS | high polyreactivity
QVQLVESGGGLVQAGGSLRLSCAASGNIFDAYGMGWNRQAPGKETELVAAIDWTGGSTYYADSVKGRFTISRDNAKNTVYLQMNSLKPEDTAVYYCAADWGGGYQQYGNDWVNYWGQGTQVTVSS | low polyreactivity
QDQHVESGGGLVQAGGSLRLSIAASASTIGFNAMGWYRQAPGKERELVAAITFSGGTTYYADSVKGRFTISRDNAKNTVYFQMNSLKPEDTAVYYCNADWWYQYSGPFAPWGEDYWGQGTQVTVSS | low polyreactivity
QVQLVESGGGLVQAGGSLRLSCAASGSTLYPNAMGWYRQAPGKERELVAAIRRRGGSTYYADSVKGRFTISRDNAKNTVYLQMNSLKPEDTAVYYCAAYPYKQDPTLVHYDYWGQGTQVTVSS | low polyreactivity
QVQLVESGGGLVQAGGSLRLICAASGIIFRWYTMGWYRQAPGKERELVAAISTSTGSTYYADSVKGRFTISRDNAKNTVYLQMNSLKPEDTAVYYCAADYAYWNYESYYWGQGTQVTVSS | high polyreactivity
QVQLVESGGGLVQAGGSLRLSCAASGSTFPVYVMGWYRQAPGKERELVAAITRIGGSTYYADSVKGRFTISRDNAKNTVYLQMNSLKPEDTAVYYCAAGGTARDDSWGQGTQVTVSS | low polyreactivity
QVQLVESGGGLVQAGGSLRLSCAASGFIFVRNTRGWYRQAPGKERELVAAISSRGGRTYYADSVKGRFTISRDNAKNTVYLQMNSLKPEDTAVYYCAKAHSVNQRYDYWGQGTQVTVSS | high polyreactivity
QVQLLESGGGLVQAGGSLRLSCAPSGFTYRYNAMVWYRQAPGIERELVAAISSRGGSTYYADSVKGRFTISRDNAKNTVYFQMNSLKPEDTGVYYCARDDWVYTNVEMDYWGQGTQVTVSS | high polyreactivity
QVQLVESGGGLVQAGGSLRLSCAASGRIFIRNDMGWYRQAPGKERELVAVITRSGGRTYYADSVKGRFTISRDNAKNTVYLQMNSLKPEDTAVYYCAKRQAFKQAPYEYWGQGTQVTVSS | low polyreactivity
QVQLVESGGGLVQAGGSLRLSCAASGIIFYRNAMGWYRQAPGNERELVAAITSSGGRTYYADSVKGRFTISRDNAKNTVYLQMNSLKPEDTPVYYCAATRLYWKIFYGDGDYWGQGTQVTVSS | high polyreactivity
QVQLVESGGGLVQAGGSLRLSCAASGFIIFQYAMGLYRQAPGKERELVAAISGSGVTTYYADSVKGRFTISRDNAKNNVYLQMNSLKPEDTAVYYCNAALSWKYDWGQGTQVTVSS | low polyreactivity
QVQLVESGGGLVQAGGSLRLSCADSGRTFRIYAMGWYRQAPGKERELVARITKRAGSTYYADSVKGRFTISRDNAKNTVYLQMNSLKPEDTAVYYCAATHYQWRGRYGYWRQGTQVTVSS | high polyreactivity
QVQLVESGGGLVQEGGSLRLSCAASGSTFYWYAMGWYRQAPGKERELVATISNTGRTYYADSVKGRFTISRDNAKNTVYLQMNSLKPEDTAVYDCAAKRSQRWRYDYWGQGTQVTVSS | high polyreactivity
QVQLVESGGGLVQAGGSLRLSCAASGRIFGWYAMGWYRQAPGKERELVAAISGRGGSTFYADSVKGRFTISRDNEKNTVYLQMNSLKPEDTAVYYCNAYSWYGYDYWGQGTQVTVSS | high polyreactivity
QVQLQESGGGLVQAGGSLRLSCAASGNFFDADIMGWYRQAPGKERELVASITDGGSTNYADSVKGRFTISRGNTKNTVYLLMNCLKPEDTSVYYCAAIAYPDMPTYFDYNSDYFYWGQGTQVTVSS | high polyreactivity

Sequence | polyreactivity (PSR sort gate)
QVQLVESGGGLVQAGGSLRLSCSASGSTFGYNAMGWYRQAPGKERELVAAILFSGGSTFYADSVKGRFTISRDNAKNTVYLQMNSLKQEDTAVYYCADYAGYYAYDSWGQGTQVTVSS | low polyreactivity
QVQLVESGGGLVQAGGSLRLSCAASGLTFNVYAMGWYRQAPGKERELVASITKRGGSTYYADSVKGRFTISRDNAKNTVYLEMNSLKPEDTAVYYCAADGLTGSKYRATGYYWGQGTQVTVSS | high polyreactivity
QVQLVESGGGLVQAGGSLRLSCAASGFIFGYNAMGWYRQAPGKERELVAAISYSGVSTYYADSVKGRFTISRDNAKNTVYLQMNSLKPEDTAVYYCAARPIGYKPRGEYDYWGQGTQVTVSS | high polyreactivity
QVQLVESGGGLVQAGGSLRLSCAASGLIFVSNAMGWYRQAPGKERELVAAISWSGSRTYYADSVKGRFTISRDNAKNTVYLQMNSLKPEDTAVYYCNAVRRGLPVVGAYDYWGQGTQVTVSS | high polyreactivity
QVQLVESGGGLVQAGGSLRLTCAASGFTFRKNVMGWYRQAPGKERELVAFISSSGGSTYYADSVKGRFTISRDNEKNTGYIPMNSLKPEETAVYYCNAGRYGSNLEYWGQATQVTVSS | low polyreactivity
QVQLVESGGGLVQAGGSLRLSCAASGRTILLNDMGWYRQAPGKERELVAGITRSGGSTYYADSVKGRFTISRDNAKNTVYLQMNSLKPEDNAVYYCAADFKPLYYDEYDYWGQGTQVTVSS | low polyreactivity
QVQLVESGGGLVQAGGSLRLSCASSGYTFALYAKGWYRQAPGKERELVAAITDSDGSTYADSVKGRFTITRDNAKNTVYLQMNSVKPEDTAVYYCAAESEQWYSYVLSYDWEYDYWGQGTQVTVSS | low polyreactivity
QLQHVESGAVLVQAAGSLRLICAASGLIFPYNAMGWSRQAPGKERELVAAIDTRASSTYYADSVKGRFTISRDNAKNSVYLQMNSLKPEDTAVYYCATRRWGRRKGVGYWGQGTQVTVSS | high polyreactivity
QVQLVESGGGLVQAGGSLRLSCAASGRIFTDNVMGWYRQAPGKERELVAAITRRGGSTYYADSVKGRFTISRDNAKNTVYLQMNSLKPEDSAVYYCNARGRLYGHLYDYWGQGTQVTVSS | low polyreactivity
QVQLVESGGGLVQAGGSLRLSCAASGFTFSRYAMGWYRQAPGKERELVAAISYSGGRTYYADSVKGRFTISRDNAKNTVYLQMKSLKPEDTAVYYCNAFFTSSGWRLGYDYWGQGTQVTVSS | high polyreactivity
QVQLVESGGGLVQAGGSLRLSCAASGSIFGFNAMGWYRQARGKERELVAAINNGGSTNYADSVKGRFTISRDNAKNTVYLQMNSLKPEDTAVYYCAARLNYIRRGYWGQGTQVTVSS | high polyreactivity
QVQLVESGGGLVQAGGRLRLSCAASGSTFYWNTMGWYIQAPGKERELVAAISRRGGSTYYADSEKGRFTISRDNAKNTVYLQMNSLKPEETAVYYCNKLLSQRRYHSEMDYWGQGTQVTVSS | high polyreactivity
QVQLVESGGGLVQAGGSLRLSCAASGYTLTPYTMGWYRQAPGKERELVAAINRSGGSTYYADSVKGRFTISRDNAKNTVYLQMNSLKPEDTAVYYCAAYGYYNFGYYYWGQGTQVTVSS | high polyreactivity
QVQLVESGGGLVQAGGSLRLSCAASGRTFTYYAMGWYIQAPGKERELVAAISSGGRTYYADSVKGRFTISRDNAKNTVYLQMNSLKPEDTAVYYCAADAYRSPWRLYGSRFGYWGQGTQVTVSS | high polyreactivity
QVQLVESRGGLVQAGGSLRLSCAASGSTFYAYAMGWYRQAPGKERDLVAAISSSGGSTYYADSVKGRFTISRDNAKNTVYLQMNSLKTEDTAVYYCAAYDSVQKYWILGFDYWGQGTQVTVSS | low polyreactivity
